# Laboratory results as given in patent publication EP4588939A1 (Universitat de Barcelona, dated 2025).
# T1: human IL13Rα2 (interleukin-13 receptor subunit alpha-2) (human, UniProt Q14627 27-380)
# T1 construct: whole, on cells; also called IL13Ra2
# T1 sequence (looked up): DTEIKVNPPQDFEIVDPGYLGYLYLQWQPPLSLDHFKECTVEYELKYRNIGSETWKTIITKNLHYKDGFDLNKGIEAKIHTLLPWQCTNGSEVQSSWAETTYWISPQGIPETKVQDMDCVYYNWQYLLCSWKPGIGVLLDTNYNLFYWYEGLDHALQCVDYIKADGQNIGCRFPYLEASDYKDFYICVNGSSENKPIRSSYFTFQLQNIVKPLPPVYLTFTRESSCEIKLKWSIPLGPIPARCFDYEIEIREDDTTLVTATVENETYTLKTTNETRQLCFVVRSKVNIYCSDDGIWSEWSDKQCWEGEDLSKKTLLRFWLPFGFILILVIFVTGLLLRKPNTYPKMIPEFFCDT
# Target: T1, human IL13Rα2 (interleukin-13 receptor …)
# Test: flow cytometry of hybridoma supernatants on IL13Rα2-transfected 300.19 cells; specificity further validated on IL13Rα2-transfected COS cells and U251 cells
row,binding result,Binder
1,binds,"46A murine anti-IL13Rα2 monoclonal antibody (antibody, V domains shown, Tested as hybridoma supernatant; also called IL13Rα2_46A; clone 46A) VH: QVQLKQSGPGLVQPSQSLSITCTVSGFSITKYGVHWVRLSPGKGLEWLGVIWSGGSTDYNAAFISRLNISKDNSKSQVFFKMNSLQANDTAIYYCARDFGDTMDYWGQGTSVTVSS VL: QIVLTQSPAIMSASLGERVTMTCTASSSVTSSYLHWYQQKPGSSPKLWIFSTSNLASGVPARFSGSGSGTSYSLTISSMEAEDAATYYCHQYHRSPLTFGAGTKLELK"
2,binds,"82B murine anti-IL13Rα2 monoclonal antibody (antibody, V domains shown, Tested as hybridoma supernatant; also called IL13Rα2_82B; clone 82B) VH: QVQLKQSGPGLVQPSQSLSITCTVSGFSLTSYGVHWVRQSPGKGLEWLGVIWSGGSTDYNAAFISRLSISKDNSKSQVFFKMNSLQANDTAIYYCARDRYDAFDYWGQGTTLTVSS VL: QIVLTQSPAIMSASLGERVTMTCTASSSVSSSYLHWYQQKPGSSPKLWIYSTSNLASGVPARFSGSGSGTSYSLTISSMEAEDAATYYCHQYHRSPLTFGAGTKLELK"
3,binds,"6A murine anti-IL13Rα2 monoclonal antibody (antibody, V domains shown, Tested as hybridoma supernatant; also called IL13Rα2_6A; clone 6A) VH: EVQLQQSGPELVKPGASVKISCKTSGYTFTEYTMHWVKQSHGKSLEWIGIINPNNGGTNYNQKFKGKATLTVDKSSSTAYMELRSLTSEDSAVYYCARPSATHYFDYWGQGTTLTVSS VL: DIKMTQSPSSMYASLGERVTITCKASQDIKSYLSWFQQKPGKSPKTLIYRANRLVDGVPSRFSGSGSGQDYSLTISSLEYEDMGIYYCLQYDEFPLTFGAGTKLELK"
4,binds,"143A murine anti-IL13Rα2 monoclonal antibody (antibody, V domains shown, Tested as hybridoma supernatant; also called IL13Rα2_143A; clone 143A) VH: DVQLVESGGGLVQPGGSRKLSCAASGFTFSSFGMHWVRQAPEKGLEWVAYISSGSSTIYYADTVKGRFIISRDNPKNTLFLQMTSLRSEDTAMYYCARKYEGYAMDYWGQGTSVTVSS VL: DIKMTQSPSSMYASLGERVTITCKASQDINSYLSWFQQKPGKSPKTLIYRANRLVDGVPSRFSGSGSGQDYSLTISSLEYEDMGIYSCLQYDEFPLTFGAGTKLELK"
